According to US20260240907A1 (published 2026):

T1: KRAS G12D peptide on HLA-A*11:01 (human)
T1 peptide: VVVGADGVGK

T2: KRAS G12V peptide on HLA-A*02:01 (human)
T2 peptide: KLVVVGAVGV


Assays:
[1] = target: T1, KRAS G12D peptide on HLA-A*11:01; assay: multimer staining
[2] = target: T2, KRAS G12V peptide on HLA-A*02:01; assay: multimer staining

| Binder | binding result [1] | binding result [2] |
| --- | --- | --- |
| TCR5 (TCR, V domains shown) Valpha: ILNVEQSPQSLHVQEGDSTNFTCSFPSSNFYALHWYRWETAKSPEALFVMTLNGDEKKKGRISATLNTKEGYSYLYIKGSQPEDSATYLCASADGANNLFFGTGTRLTVIP Vbeta: SAVISQKPSRDICQRGTSLTIQCQVDSQVTMMFWYRQQPRQSLTLIATANQGSEATYESGFVIDKFPISRPNLTFSTLTVSNMSPEDSSIYLCSVGPSGTGPGYTFGSGTRLTVV | recognises | – |
| TCR9 (TCR, V domains shown) Valpha: GEDVEQSLFLSVREGDSSVINCTYTDSSSTYLYWYKQEPGAGLQLLTYIFSNMDMKQDQRLTVLLNKKDKHLSLRIADTQTGDSAIYFCAEIPGDSSYKLIFGSGTRLLVRP Vbeta: not shown | – | recognises |
| TCR10 (TCR, V domains shown) Valpha: GEDVEQSLFLSVREGDSSVINCTYTDSSSTYLYWYKQEPGAGLQLLTYIFSNMDMKQDQRLTVLLNKKDKHLSLRIADTQTGDSAIYFCAEMKDTDKLIFGTGTRLQVFP Vbeta: DGGITQSPKYLFRKEGQNVTLSCEQNLNHDAMYWYRQDPGQGLRLIYYSQIVNDFQKGDIAEGYSVSREKKESFPLTVTSAQKNPTAFYLCASTQVGTGELFFGEGSRLTVL | – | recognises |
| TCR11 (TCR, V domains shown) Valpha: GEDVEQSLFLSVREGDSSVINCTYTDSSSTYLYWYKQEPGAGLQLLTYIFSNMDMKQDQRLTVLLNKKDKHLSLRIADTQTGDSAIYFCAEMKDTDKLIFGTGTRLQVFP Vbeta: not shown | – | recognises |
| TCR13 (TCR, V domains shown) Valpha: GEDVEQSLFLSVREGDSSVINCTYTDSSSTYLYWYKQEPGAGLQLLTYIFSNMDMKQDQRLTVLLNKKDKHLSLRIADTQTGDSAIYFCAERRDTDKLIFGTGTRLQVFP Vbeta: GAVVSQHPSWVICKSGTSVKIECRSLDFQATTMFWYRQFPKQSLMLMATSNEGSKATYEQGVEKDKFLINHASLTLSTLTVTSAHPEDSSFYICSAWGANTGELFFGEGSRLTVL | – | recognises |
| TCR12 (TCR, V domains shown) Valpha: GEDVEQSLFLSVREGDSSVINCTYTDSSSTYLYWYKQEPGAGLQLLTYIFSNMDMKQDQRLTVLLNKKDKHLSLRIADTQTGDSAIYFCAEIRDTGKLIFGQGTTLQVKP Vbeta: DVKVTQSSRYLVKRTGEKVFLECVQDMDHENMFWYRQDPGLGLRLIYFSYDVKMKEKGDIPEGYSVSREKKERFSLILESASTNQTSMYLCASSRQGTDTQYFGPGTRLTVL | – | recognises |
| TCR6 (TCR, V domains shown) Valpha: AQTVTQSQPEMSVQEAETVTLSCTYDTSESDYYLFWYKQPPSRQMILVIRQEAYKQQNATENRFSVNFQKAAKSFSLKISDSQLGDAAMYFCAYTNSGNTPLVFGKGTRLSVIA Vbeta: DAGVIQSPRHEVTEMGQEVTLRCKPISGHDYLFWYRQTMMRGLELLIYFNNNVPIDDSGMPEDRFSAKMPNASFSTLKIQPSEPRDSAVYFCASKPGPRSWREGAFFGQGTRLTVV | recognises | – |
| TCR14 (TCR, V domains shown) Valpha: AQKITQTQPGMFVQEKEAVTLDCTYDTSDPSYGLFWYKQPSSGEMIFLIYQGSYDQQNATEGRYSLNFQKARKSANLVISASQLGDSAMYFCAMRGMDSSYKLIFGSGTRLLVRP Vbeta: DVKVTQSSRYLVKRTGEKVFLECVQDMDHENMFWYRQDPGLGLRLIYFSYDVKMKEKGDIPEGYSVSREKKERFSLILESASTNQTSMYLCATRTGQQAGSKDTDTQYFGPGTRLTVL | – | recognises |
| TCR16 (TCR, V domains shown) Valpha: DQQVKQNSPSLSVQEGRISILNCDYTNSMFDYFLWYKKYPAEGPTFLISISSIKDKNEDGRFTVFLNKSAKHLSLHIVPSQPGDSAVYFCAVNRDDKIIFGKGTRLHILP Vbeta: DTGVSQDPRHKITKRGQNVTFRCDPISEHNRLYWYRQTLGQGPEFLTYFQNEAQLEKSRLLSDRFSAERPKGSFSTLEIQRTEQGDSAMYLCASSSELAGGINEQFFGPGTRLTVL | – | recognises |
| TCR3 (TCR, V domains shown) Valpha: AQKITQTQPGMFVQEKEAVTLDCTYDTSDPSYGLFWYKQPSSGEMIFLIYQGSYDQQNATEGRYSLNFQKARKSANLVISASQLGDSAMYFCVGNEKLTFGTGTRLTIIP Vbeta: KAGVTQTPRYLIKTRGQQVTLSCSPISGHRSVSWYQQTPGQGLQFLFEYFSETQRNKGNFPGRFSGRQFSNSRSEMNVSTLELGDSALYLCASSLATGGYNSPLHFGNGTRLTVT | recognises | – |

Next, values leading:

| binding result [1] | binding result [2] | Binder |
| --- | --- | --- |
| recognises | – | TCR2 (TCR, V domains shown) Valpha: AQKVTQAQTEISVVEKEDVTLDCVYETRDTTYYLFWYKQPPSGELVFLIRRNSFDEQNEISGRYSWNFQKSTSSFNFTITASQVVDSAVYFCALSEGSNYKLTFGKGTLLTVNP Vbeta: EAGVAQSPRYKIIEKRQSVAFWCNPISGHATLYWYQQILGQGPKLLIQFQNNGVVDDSQLPKDRFSAERLKGVDSTLKIQPAKLEDSAVYLCASSSTGGTGETQYFGPGTRLLVL |
| recognises | – | TCR1 (TCR, V domains shown) Valpha: AQKVTQAQTEISVVEKEDVTLDCVYETRDTTYYLFWYKQPPSGELVFLIRRNSFDEQNEISGRYSWNFQKSTSSFNFTITASQVVDSAVYFCALSEVTGAGSYQLTFGKGTKLSVIP Vbeta: DGGITQSPKYLFRKEGQNVTLSCEQNLNHDAMYWYRQDPGQGLRLIYYSQIVNDFQKGDIAEGYSVSREKKESFPLTVTSAQKNPTAFYLCASSIGAGQHNSPLHFGNGTRLTVT |
| – | recognises | TCR8 (TCR, V domains shown) Valpha: GEDVEQSLFLSVREGDSSVINCTYTDSSSTYLYWYKQEPGAGLQLLTYIFSNMDMKQDQRLTVLLNKKDKHLSLRIADTQTGDSAIYFCAESIRDTDKLIFGTGTRLQVFP Vbeta: GAVVSQHPSRVICKSGTSVKIECRSLDFQATTMFWYRQFPKKSLMLMATSNEGSKATYEQGVEKDKFLINHASLTLSTLTVTSAHPEDSSFYICSARDTSGTTRNEQFFGPGTRLTVL |
| – | recognises | TCR15 (TCR, V domains shown) Valpha: GEDVEQSLFLSVREGDSSVINCTYTDSSSTYLYWYKQEPGAGLQLLTYIFSNMDMKQDQRLTVLLNKKDKHLSLRIADTQTGDSAIYFCADFLRDTDKLIFGTGTRLQVFP Vbeta: GAVVSQHPSWVICKSGTSVKIECRSLDFQATTMFWYRQFPKQSLMLMATSNEGSKATYEQGVEKDKFLINHASLTLSTLTVTSAHPEDSSFYICSARDRTSTDTQYFGPGTRLTVL |
| recognises | – | TCR4 (TCR, V domains shown) Valpha: GEDVEQSLFLSVREGDSSVINCTYTDSSSTYLYWYKQEPGAGLQLLTYIFSNMDMKQDQRLTVLLNKKDKHLSLRIADTQTGDSAIYFCAERRGNMLTFGGGTRLMVKP Vbeta: NAGVTQTPKFRILKIGQSMTLQCTQDMNHNYMYWYRQDPGMGLKLIYYSVGAGITDKGEVPNGYNVSRSTTEDFPLRLELAAPSQTSVYFCASSRTSGLTDTQYFGPGTRLTVL |
